We go through one molecule from patent US20140080161A1, “PHOSPHATASE COUPLED KINASE ASSAY” (RESEARCH AND DIAGNOSTIC SYSTEMS, INC., priority 2010, published 2014).

For data set [1] the following is noted: enzyme as obtained from R&D Systems; cited from earlier work.
The nature of data set [2]: Coupling efficiency: ADP hydrolysis in presence versus absence of ATP. The class given is biochemical. Conditions: for Slope of ADP Hydrolysis Curve (Si): 0.2 μg rhCD39L2, 20 minutes. An excerpt: The coupling efficiency of a phosphatase may be determined by measuring the rates of ADP hydrolysis in the presence of ATP, and in the absence of ATP, under conditions which are otherwise the same. The coupling efficiency is the ratio of the ADP hydrolysis rate in the presence of ATP to the ADP hydrolysis rate in the absence of ATP. As exemplified in Example 3 (FIG. 4), the coupling efficiency in the presence of i mM of ATP, Ci, is equal to the ratio of the slope of the corresponding ADP hydrolysis curve in the presence of i mM of ATP, Si, to the slope of the ADP hydrolysis curve in the absence of ATP, So. The coupling efficiency may be characterized by the following formula: […]
The coupling efficiency will vary depending upon the concentration of ATP. As such, the Ci may be calculated at various ATP concentrations and the results may be plotted to give a curve of coupling efficiency versus ATP concentration. In this way, the coupling efficiency may be determined for any concentration of ATP, such as the beginning concentration of ATP used in a reaction. The coupling efficiency can be obtained once the conditions for a kinase reaction are determined and may then be used to adjust the final measured kinase activity depending upon the ATP concentration. For example, the final measured ADP production may be divided by the coupling efficiency (assuming that the ATP concentration throughout the reaction is approximately constant) in order to calculate the actual ADP production. The coupling efficiency allows for measuring the kinase activity even at high levels of ATP, such as at intracellular ATP concentration levels, about 1 mM, which may be most biologically relevant for some reactions.
This experiment measured the coupling efficiency of CD39L2, which was the ratio of the rate of ADP hydrolysis in the presence of ATP to the rate of ADP hydrolysis in the absence of ATP, under conditions which were otherwise identical. In a series of reactions, increasing amounts of ADP (0 to 15 nmol, within the coupling capacity) were hydrolyzed with 0.2 μg of rhCD39L2 in the presence of various concentrations of ATP (0, 0.156, 0.312, 0.625, 1.25, 2.5, or 5 mM). The reactions were stopped after 20 minutes and the Malachite Green assay was performed and OD readings were taken at 620 nm.
Coupling efficiency in the presence of i mM of ATP (Ci) was determined from the ratio of the slope of the ADP hydrolysis curve in the presence of i mM ATP (Si) to the slope of the ADP hydrolysis curve in the absence of ATP (S0) according to Equation 1. For each concentration of ATP, Ci was calculated. […] The coupling efficiency may then be used to correct the data obtained for any competitive inhibition that might be caused by the ATP, especially at high concentrations of ATP.

The nature of data set [3]: ADP hydrolysis curve with increasing amounts of phosphatase, free phosphate by Malachite Green. The format is biochemical. The source says:
The relative activity of the phosphatase on ADP and ATP can be measured by creating hydrolysis curves for ADP and ATP. For example, such hydrolysis curves may be created by performing a series of reactions separately combining set quantities of ADP or ATP with varying quantities of phosphatase and detecting the free phosphate produced. An example of such curves is described in Example 1 below. The resulting phosphate levels (or OD readings, which directly correspond to the phosphate levels) can be plotted against the amount of phosphatase used. The phosphate level or OD readings can be compared at the same quantity of the phosphatase to determine the relative activity of the phosphatase for ADP as compared to ATP. […] The amount of phosphatase to be used for kinase reactions is preferably selected from within the rapidly rising portion of the ADP hydrolysis curve. In addition, the relative activity of the phosphatase for ADP versus ATP is preferably compared within this rapidly rising portion of the hydrolysis curve, at or near the steepest portion of the curve. At phosphatase levels below this range, the generated signals are weak, while at phosphatase levels above this range, the ADP hydrolysis approaches completion, which could underestimate the activity of the phosphatase on ADP due to exhaustion of the substrate.
The kinase reactions were carried out in 50 μL of kinase assay buffer including 25 mM Tris, 150 mM NaCl, 5 mM MgCl2, and 5 mM CaCl2 at pH 7.5 in a 96 well plate at room temperature. Each reaction was stopped with 30 μL of Malachite Reagent A and 100 μL of water. The color was developed with 30 μL Malachite Reagent B. The plate was read at 620 nm with a multi-well plate reader. If the predicted phosphate content in the reaction was above 4,000 pmol, the reaction was diluted before phosphate detection.
In this experiment, the relative activity of rhCD39L2 on ADP and ATP was determined. In a first series of reactions, 100 nmol of 2 mM ATP was combined with increasing amounts of rhCD39L2 (0.03125 μg, 0.0625 μg, 0.125 μg, 0.25 μg, 0.5 μg) for 20 minutes. Likewise in a second series of reactions, 100 nmol of 2 mM ADP was combined with the same increasing amounts of rhCD39L2 for 20 minutes. The reactions were stopped after 20 minutes and free phosphate was measured using the Malachite Green assay as described above.
The relative activity of recombinant mouse CD 39L2 (rmCD39L2) on ADP and ATP was determined in a series of reactions similar to Example 1. 100 nmol of 2 mM ATP was combined with increasing amounts of rmCD39L2 (0.03125 μg, […], 0.125 0.25 μg, 0.5 μg). Likewise in a second series of reactions, 100 nmol of 2 mM ADP was combined with the same increasing amounts of rmCD39L2. The reactions were stopped after 5 minutes and free phosphate was measured using the Malachite Green assay as described above.
The experiment of Example 1 was repeated using recombinant human CD39L4 (rhCD39L4). 100 nmol of ATP (2 mM) was combined with increasing amounts of rhCD39L4 (0.03125 μg, 0.0625 μg, 0.125 μg, 0.25 μg, 0.5 μg, 1.0 μg). Likewise in a second series of reactions, 100 nmol of ADP (2 mM) was combined with the same increasing amounts of rhCD39L4 for 5 minutes. The reactions were stopped after 5 minutes and free phosphate was measured using the Malachite Green assay as described above. […] As such, the necessary preference of the phosphatase for ADP as compared to ATP is present.

B1: rhCD39L2: recombinant human CD39L2, nucleotide phosphatase preferring ADP over ATP, used for coupling (protein, UniProt O75354 1-484, looked up)
Ectonucleoside triphosphate …: MKKGIRYETSRKTSYIFQQPQHGPWQTRMRKISNHGSLRVAKVAYPLGLCVGVFIYVAYIKWHRATATQAFFSITRAAPGARWGQQAHSPLGTAADGHEVFYGIMFDAGSTGTRVHVFQFTRPPRETPTLTHETFKALKPGLSAYADDVEKSAQGIRELLDVAKQDIPFDFWKATPLVLKATAGLRLLPGEKAQKLLQKVKKVFKASPFLVGDDCVSIMNGTDEGVSAWITINFLTGSLKTPGGSSVGMLDLGGGSTQIAFLPRVEGTLQASPPGYLTALRMFNRTYKLYSYSYLGLGLMSARLAILGGVEGQPAKDGKELVSPCLSPSFKGEWEHAEVTYRVSGQKAAASLHELCAARVSEVLQNRVHRTEEVKHVDFYAFSYYYDLAAGVGLIDAEKGGSLVVGDFEIAAKYVCRTLETQPQSSPFSCMDLTYVSLLLQEFGFPRSKVLKLTRKIDNVETSWALGAIFHYIDSLNRQKSPAS
On to B1, for which the specific activity in data set [1] is > 20,000 pmol/min/μg. The coupling efficiency in data set [2] (0.2 mM ATP, based on data of Example 3) is 0.9; in data set [2] (2 mM ATP, based on data of Example 3) it was 0.51; in data set [2] (4 mM ATP, predicted from data of Example 3 (FIG. 5)), 0.4. Further, the “Coupling Efficiency (Ci)” value in data set [2] (ATP 0 mM) was 1.00; in data set [2] (ATP 0.156 mM), 0.97; in data set [2] (ATP 0.312 mM), 0.74; in data set [2] (ATP 0.625 mM), 0.61; in data set [2] (ATP 1.25 mM), 0.56; in data set [2] (ATP 2.50 mM), 0.48. Further, the “Coupling Efficiency (Ci)” value in data set [2] (ATP 5.0 mM) was found to be 0.34. For the same molecule, the “Slope of ADP Hydrolysis Curve (Si)” value in data set [2] (ATP 0 mM) is 0.280; in data set [2] (ATP 0.156 mM) it was 0.271; in data set [2] (ATP 0.312 mM), 0.207; in data set [2] (ATP 0.625 mM), 0.170; in data set [2] (ATP 1.25 mM), 0.157; in data set [2] (ATP 2.50 mM), 0.134. Further, in data set [2] (ATP 5.0 mM), the “Slope of ADP Hydrolysis Curve (Si)” value was determined as 0.096. Besides, the “phosphate released from ADP” value in data set [3] (0.25 μg phosphatase, 100 nmol of 2 mM ADP, 20 minutes) is reported as “about 80 nmol”. In data set [3] (Example 1, 20 minutes, allowing for two hydrolyzable phosphates of ATP), the “fold more active on ADP” value is “about 70 fold”. In addition, the “fold more phosphate released from ADP than from ATP” value in data set [3] (rising phases of the ADP hydrolysis curve, 20 minutes) worked out at 35 fold.
